Assay results from patent US20090180995A1, “NOVEL ANTICOAGULANT POLYPEPTIDES AND COMPLEX” (National University of Singapore, priority 2005, published 2009).
Entries after “also recorded” stand apart in the source; their conditions may differ.

Experiments:
FVIIa-sTF = target: T1, FVIIa-sTF (Homo sapiens, UniProt P08709); test: Kinetics of inhibition of FVIIa-sTF amidolytic activity on S-2288; assay type: biochemical
T1 construct: made in house; host or cells: Saccharomyces cerevisiae (sTF); human plasma (FVIIa)
T1 sequence (P13726 33-251 partner limits assumed, one chain of several): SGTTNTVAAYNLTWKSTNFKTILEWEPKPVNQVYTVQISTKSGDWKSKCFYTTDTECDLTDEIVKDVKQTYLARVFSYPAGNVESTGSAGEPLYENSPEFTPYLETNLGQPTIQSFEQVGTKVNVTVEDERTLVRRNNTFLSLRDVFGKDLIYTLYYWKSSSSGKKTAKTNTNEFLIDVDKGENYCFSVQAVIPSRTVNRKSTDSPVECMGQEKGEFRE
Method: Determination of kinetic constants for substrate hydrolysis—All studies were in assay buffer containing 50 mM Tris-HCl, pH 8.0, containing 150 mM NaCl, 10 mM CaCl2, and 1% BSA at 37° C. The kinetics of hydrolysis of the chromogenic substrate S-2288 by FVIIa-sTF was measured prior to examining the inhibitory effects of individual hemextins and the hemextin AB complex. Reactions were initiated by the addition of S-2288 (0-5 mM) to the individual wells of a 96-well plate containing FVIIa (30 nM) in complex with sTF (100 nM) in a final volume of 180 μl. Initial reaction velocities were measured as a linear increase in the absorbance at 405 nm (A405 nm) over 5 min, with a SPECTRAmax Plus® temperature-controlled microplate spectrophotometer (Molecular Devices, Sunnyvale, Calif.). The Km was derived from the nonlinear regression fit of the determined velocities, the value of which was 2.79 mM.
Kinetics of inhibition—The inhibitory potency of anticoagulant complex was measured over a range of substrate concentrations. Reactions were initiated by the addition of S-2288 to premixed enzyme-cofactor and inhibitor in the wells of a microtiter plate. Reactions with FVIIa-sTF contained 0.0125-0.05 μM of inhibitor complex and 0 to 3 mM of S-2288.
V=Vmax [S]/(1+[I]Ki)/{Km+[S]} (Eq. 1)

FVIIa = target: T2, FVIIa (Homo sapiens, UniProt P08709); test: ITC, binding of hemextin AB complex to FVIIa; conditions: 37° C.
T2 construct: from tissue; host or cells: human plasma
T2 sequence (P08709 61-212 limits assumed): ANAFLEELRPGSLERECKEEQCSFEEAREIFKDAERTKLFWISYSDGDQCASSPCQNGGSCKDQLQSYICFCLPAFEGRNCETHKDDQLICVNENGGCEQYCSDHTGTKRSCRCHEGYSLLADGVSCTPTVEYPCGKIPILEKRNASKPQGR
T2 sequence (P08709 213-466 limits assumed): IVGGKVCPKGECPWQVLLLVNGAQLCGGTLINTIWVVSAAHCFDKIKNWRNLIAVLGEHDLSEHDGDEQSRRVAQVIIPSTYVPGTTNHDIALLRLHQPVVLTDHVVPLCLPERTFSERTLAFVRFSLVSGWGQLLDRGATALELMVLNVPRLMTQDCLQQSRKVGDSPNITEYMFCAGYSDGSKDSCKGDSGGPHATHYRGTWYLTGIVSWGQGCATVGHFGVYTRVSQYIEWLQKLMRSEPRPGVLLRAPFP
Method: Isothermal titration calorimetry (ITC) studies—The interaction of anticoagulant hemextin AB complex with FVIIa was monitored with a VP-ITC titration calorimetric system (Microcal Inc., Northampton, Mass.). The instrument was calibrated using the built-in electrical calibration check. FVIIa (10 μM) in 50 mM Tris-HCl buffer and 10 mM CaCl2 (pH 7.4) in the calorimetric cell was titrated with reconstituted anticoagulant complex (0.2 mM) dissolved in the same buffer in a 250 μl injection syringe, with continual stirring at 300 rpm at 37° C. All the protein solutions were filtered and degassed prior to titration. […] The total heat content Q of the solution (determined relative to zero for the unliganded species) contained in the active cell volume, Vo, was calculated according to the following Equation 2, where K is the binding affinity constant, n is the number of sites, ΔH is the enthalpy of ligand binding, Mt and Xt is the bulk concentration of macromolecule and ligand, respectively, for the binding X+M ? […]
The change in heat (ΔQ) measured between the completions of two consecutive injections is corrected for dilution of the protein and ligand in the cell according to standard Marquardt methods. The free energy change (AG) during the interaction was calculated by using the relationship: ΔG=ΔH−TΔS=[…], where T is the absolute temperature and R is the universal gas constant.

[1] = test system: hemextin A-hemextin B interaction; test: ITC, hemextin A-hemextin B interaction; assay type: binding, Hemachatus haemachatus
[2] = Size exclusion chromatography of hemextin AB complex in different buffers; assay type: physicochemical
Method: Size exclusion chromatography (SEC) studies—All SEC experiments were carried out at room temperature on a pre-packed Superdex 75 gel filtration column (1.6×60 cm) using a ÄKTA Purifier system (Amersham Biosciences, Uppsala, Sweden). The column was eluted with 50 mM Tris-HCl buffer (pH 7.4) or the specified elution buffer, at a flow rate of 1 ml/min. The sample volume applied to the column was 4 ml. The column was calibrated using ovomucoid (28 kD) ribonuclease (15.6 KD), cytochrome C (12 KD), apoprotinin (7 KD) and pelovaterin (4 KD) (20) as molecular weight markers. The void volume was determined by running Blue Dextran. The column was equilibrated with at least two bed volumes of the elution buffer prior to each run. Electrostatic contributions in the hemextin AB complex formation were studied by monitoring its elution in 50 mM Tris-HCl buffer (pH 7.4) of different concentrations of NaCl (75 mM and 150 mM). Hydrophobic contributions for the complex formation were determined by recording its elution in 50 mM Tris-HCl buffer (pH 7.4). In both studies, the column was first equilibrated with the desired buffer prior to the application of the reconstituted hemextin AB complex in the respective buffer to the column. Elution of protein was monitored by absorbance at 280 nm.

B1: hemextin AB complex: synergistic 1:1 tetrameric complex of hemextin A and hemextin B, reconstituted from equimolar proteins (protein)
chain 1: LKCKNKLVPFLSKTCPEGKNLCYKMTMLKMPKIPIKRGCTDACPKSSLLVKVVCCNKDKCN
chain 2: LKCKNKVVPFLKCKNKVVPFLCYKMTLKKVPKIPIKRGCTDACPKSSLLVNVMCCKTDKCN
Q: For B1, which “nature of inhibition of FVIIa-sTF activity” value (FVIIa-sTF; S-2288, Lineweaver-Burk plots) is on record?
A: non-competitively; also recorded: non-competitive inhibitor

Q: What about the Ki (FVIIa-sTF; S-2288, secondary plot) of the same molecule?
A: 25 nM

Q: And the Kcat (FVIIa-sTF; [Inhibitor] 0.0125 μM)?
A: 40.93 s⁻¹

Q: What about the Vmax (FVIIa-sTF; [Inhibitor] 0.0125 μM) of the same molecule?
A: 7.37E−05

Q: And the Kcat (FVIIa-sTF; [Inhibitor] 0.0250 μM)?
A: 30.58 s⁻¹

Q: What about the Vmax (FVIIa-sTF; [Inhibitor] 0.0250 μM) of the same molecule?
A: 5.51E−05

Q: What about the Kcat (FVIIa-sTF; [Inhibitor] 0.05 μM) of the same molecule?
A: 20.87 s⁻¹

Q: And the Vmax (FVIIa-sTF; [Inhibitor] 0.05 μM)?
A: 3.75E−05

Q: And the “ΔG of binding to FVIIa” value (FVIIa)?
A: -7.543 kcal/M

Q: And the “K for the binding to FVIIa” value (FVIIa; 50 mM Tris-HCl, 10 mM CaCl2 (pH 7.4))?
A: 411000 M⁻¹

Q: And the Ka ([1]; 10 ° C., 50 mM Tris (pH 7.4))?
A: 640000 M⁻¹

Q: And the Ka ([1]; 25 ° C., 50 mM Tris (pH 7.4))?
A: 2.07e+06 M⁻¹

Q: And the Ka ([1]; 37 ° C., 50 mM Tris (pH 7.4))?
A: 2.23e+06 M⁻¹

Q: And the Ka ([1]; 37 ° C., 50 mM Tris (pH 7.4) + 35 mM NaCl)?
A: 630000 M⁻¹

Q: And the Ka ([1]; 37 ° C., 50 mM Tris (pH 7.4) + 75 mM NaCl)?
A: 330000 M⁻¹

Q: What about the Ka ([1]; 37 ° C., 50 mM Tris (pH 7.4) + 100 mM NaCl) of the same molecule?
A: 20000 M⁻¹

Q: What about the Ka ([1]; 37 ° C., 50 mM Tris (pH 7.4) + 125 mM glycerol) of the same molecule?
A: 320000 M⁻¹

Q: And the Ka ([1]; 37 ° C., 50 mM Tris (pH 7.4) + 150 mM NaCl)?
A: 2000 M⁻¹

Q: And the Ka ([1]; 37 ° C., 50 mM Tris (pH 7.4) + 175 mM glycerol)?
A: 200000 M⁻¹

Q: What about the Ka ([1]; 37 ° C., 50 mM Tris (pH 7.4) + 250 mM glycerol) of the same molecule?
A: 50000 M⁻¹

Q: What about the Ka ([1]; 45 ° C., 50 mM Tris (pH 7.4)) of the same molecule?
A: 1.97e+06 M⁻¹

Q: What about the “binding constant (Ka), hemextin AB complex formation” value ([1]; ITC) of the same molecule?
A: 2.23e+06 M⁻¹

Q: What about the “SEC elution of the complex, 75 mM NaCl” value ([2]; 50 mM Tris-HCl (pH 7.4), 75 mM NaCl) of the same molecule?
A: the tetramer starts breaking down to dimer

Q: And the “SEC elution of the complex, 150 mM NaCl” value ([2]; 50 mM Tris-HCl (pH 7.4), NaCl 150 mM)?
A: eluted mostly as a dimer and monomer

Q: And the “SEC elution of the complex, high glycerol concentration” value ([2]; Superdex 75, buffers containing glycerol)?
A: the tetramer breaks down to dimer and monomers
